Experiment [1] deals with FL HA H1N1 (influenza A virus H1N1). In words: SEC-MALS of FL HA with Fab; theoretical value for trimer with 3 Fabs in brackets. (SEC sorts molecules by how far they enter the pores of the column.)
The next experiment deals with sH1 mini-HA GW1.5E2-FFH. The conditions noted are these: remark: other sources report otherwise.
Experiment [2] deals with T1, sH1 mini-HA GW1.5E2-FFH (Influenza A virus H1N1 A/Brisbane/59/2007). In words: SEC-MALS with Fab fragments. The conditions noted are these: remark: other sources report otherwise.
A further experiment concerns the target s127H1. In words: SEC-MALS of polypeptide with Fab. The conditions noted are these: remark: other sources report otherwise.
Another experiment concerns the target s55G7. In words: SEC-MALS of polypeptide with Fab. The note with it: remark: other sources report otherwise.
The next experiment concerns the target s6E12. In words: SEC-MALS of polypeptide with Fab. The note with it: remark: other sources report otherwise.
A further experiment concerns the target s74H9. In words: SEC-MALS of polypeptide with Fab. The note with it: remark: other sources report otherwise.
For a further experiment, the target named is s86B4. In words: SEC-MALS of polypeptide with Fab. The note with it: remark: other sources report otherwise.
The target of experiment [3] is T1, sH1 mini-HA GW1.5E2-FFH (Influenza A …). In words: biolayer interferometry (Octet), apparent Kd; CR6261. The conditions noted are these: remark: other sources report otherwise. (BLI is a label-free optical method that tracks binding on a fibre tip over time.)

As to Fab fragment of CR9114, in experiment [1], the Mw of protein in complex with CRF9114, observed is 343 kDa.
Fab fragment of CR6261 had a Mw of protein in complex with CRF6261, observed in [1] of 396 kDa.

B1: Fab fragment of CR6261 (Fab, V domains shown)
VH: EVQLVESGAEVKKPGSSVKVSCKASGGPFRSYAISWVRQAPGQGPEWMGGIIPIFGTTKYAPKFQGRVTITADDFAGTVYMELSSLRSEDTAMYYCAKHMGYQVRETMDVWGKGTTVTVSS
VL: QSVLTQPPSVSAAPGQKVTISCSGSSSNIGNDYVSWYQQLPGTAPKLLIYDNNKRPSGIPDRFSGSKSGTSATLGITGLQTGDEANYYCATWDRRPTAYVVFGGGTKLTVLG
B1 gave a Mw of protein in complex with CRF6261, observed in the experiment with sH1 mini-HA GW1.5E2-FFH of 201 kDa. For the same molecule, the Fab fragments bound per trimer (Fab fragments per trimer) in [2] was found to be 3. Besides, the MW complex with CR6261, observed came out at 74 kDa in the experiment with s127H1; 66 kDa in the experiment with s55G7; 67 kDa with s6E12; 72 kDa with s74H9; 75 kDa with s86B4.

B2: monoclonal antibody CR6261 (antibody, V domains shown)
VH: EVQLVESGAEVKKPGSSVKVSCKASGGPFRSYAISWVRQAPGQGPEWMGGIIPIFGTTKYAPKFQGRVTITADDFAGTVYMELSSLRSEDTAMYYCAKHMGYQVRETMDVWGKGTTVTVSS
VL: QSVLTQPPSVSAAPGQKVTISCSGSSSNIGNDYVSWYQQLPGTAPKLLIYDNNKRPSGIPDRFSGSKSGTSATLGITGLQTGDEANYYCATWDRRPTAYVVFGGGTKLTVLG
Regarding B2, the Kd in [3] worked out at 1 nM.

The values above are taken from US20170209564A1.
